From patent US20240366775A1 (PEPTIDREAM, published 2024)
One block for each binder: values may come before it.

Target: T1, recombinant hTfR described in Example 2 of WO2018/124121, random biotinylated (human, UniProt P02786 89-760, randomly biotinylated with NHS-PEG4-Biotin)
T1 construct: held on a streptavidin plate for ELISA; also called human TfR
Assay: ELISA, target on streptavidin plate, sample at 100 nM, anti-human IgG-HRP

T1 sequence (P02786 89-760 limits assumed): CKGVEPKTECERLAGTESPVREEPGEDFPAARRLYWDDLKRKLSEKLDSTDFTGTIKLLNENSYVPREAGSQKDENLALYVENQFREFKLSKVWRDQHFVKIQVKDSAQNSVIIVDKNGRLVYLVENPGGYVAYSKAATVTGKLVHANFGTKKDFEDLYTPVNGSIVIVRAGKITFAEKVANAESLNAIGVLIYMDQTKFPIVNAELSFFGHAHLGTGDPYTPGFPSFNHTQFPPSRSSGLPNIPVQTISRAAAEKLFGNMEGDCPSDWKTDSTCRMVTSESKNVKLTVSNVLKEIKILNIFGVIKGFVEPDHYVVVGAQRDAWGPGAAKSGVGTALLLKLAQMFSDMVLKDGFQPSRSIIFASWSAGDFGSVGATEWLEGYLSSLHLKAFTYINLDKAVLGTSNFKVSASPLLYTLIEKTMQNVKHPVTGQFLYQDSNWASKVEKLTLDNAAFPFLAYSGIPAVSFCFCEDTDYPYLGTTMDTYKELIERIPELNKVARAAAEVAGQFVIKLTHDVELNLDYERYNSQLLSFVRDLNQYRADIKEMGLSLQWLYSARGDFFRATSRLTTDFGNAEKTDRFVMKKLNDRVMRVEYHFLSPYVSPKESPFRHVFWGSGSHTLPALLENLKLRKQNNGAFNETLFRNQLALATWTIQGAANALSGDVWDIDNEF

Abs450 nm at 100 nM: 0.0435 Abs450 nm
B1: ipilimumab (Selleck Biotech Co., Ltd., Cat. No. A2001) (antibody, V domains shown)
VH: QVQLVESGGGVVQPGRSLRLSCAASGFTFSSYTMHWVRQAPGKGLEWVTFISYDGNNKYYADSVKGRFTISRDNSKNTLYLQMNSLRAEDTAIYYCARTGWLGPFDYWGQGTLVTVSS
VL: not shown

Abs450 nm at 100 nM: 0.049 Abs450 nm
B2: nivolumab (Selleckchem, Cat. No. A2002) (antibody, V domains shown)
VH: QVQLVESGGGVVQPGRSLRLDCKASGITFSNSGMHWVRQAPGKGLEWVAVIWYDGSKRYYADSVKGRFTISRDNSKNTLFLQMNSLRAEDTAVYYCATNDDYWGQGTLVTVSS
VL: EIVLTQSPATLSLSPGERATLSCRASQSVSSYLAWYQQKPGQAPRLLIYDASNRATGIPARFSGSGSGTDFTLTISSLEPEDFAVYYCQQSSNWPRTFGQGTKVEIK

Abs450 nm at 100 nM: 0.041 Abs450 nm
B3: pembrolizumab (Selleck Biotech Co., Ltd., Cat. No. A2005) (antibody, V domains shown)
VH: QVQLVQSGVEVKKPGASVKVSCKASGYTFTNYYMYWVRQAPGQGLEWMGGINPSNGGTNFNEKFKNRVTLTTDSSTTTAYMELKSLQFDDTAVYYCARRDYRFDMGFDYWGQGTTVTVSS
VL: EIVLTQSPATLSLSPGERATLSCRASKGVSTSGYSYLHWYQQKPGQAPRLLIYLASYLESGVPARFSGSGSGTDFTLTISSLEPEDFAVYYCQHSRDLPLTFGGGTKVEIKR
